Measured values as given in patent US20210347873A1 (SHANGHAI PHARMAEXPLORER, published 2021).
Like-named read-outs stand apart in the source and are kept apart here. One block for each binder: values may come before it.

How the values were obtained:
biotinylated hBLyS-ECD [1] = target: T1, biotinylated hBLyS-ECD (human, UniProt Q9Y275 134-285, biotinylated with Biotin-X-X-NHS (molar ratio 7:1); sites not stated); test: ELISA on captured biotinylated hBLyS-ECD; antibody 13.3 nM
T1 construct: also called biotinylated immunogen; biotinylated hBLvS-ECD

biotinylated hBLyS-ECD [2] = target: T1, biotinylated hBLyS-ECD; test: ELISA on captured biotinylated hBLyS-ECD; antibody 2.67 nM
biotinylated hBLyS-ECD [3] = target: T1, biotinylated hBLyS-ECD; test: ELISA on captured biotinylated hBLyS-ECD; antibody 66.7 nM
biotinylated hBLyS-ECD [4] = target: T1, biotinylated hBLyS-ECD; test: ELISA on captured biotinylated hBLyS-ECD; antibody 0.107 nM
biotinylated hBLyS-ECD [5] = target: T1, biotinylated hBLyS-ECD; test: ELISA on captured biotinylated hBLyS-ECD; antibody 0.534 nM
biotinylated hBLyS-ECD [6] = target: T1, biotinylated hBLyS-ECD; test: ELISA on captured biotinylated hBLyS-ECD; antibody 0.0213 nM
biotinylated hBLyS-ECD [7] = target: T1, biotinylated hBLyS-ECD; test: ELISA on captured biotinylated hBLyS-ECD; antibody 0.00427 nM
biotinylated hBLyS-ECD [8] = target: T1, biotinylated hBLyS-ECD; test: ELISA on captured biotinylated hBLyS-ECD; antibody 0 nM (background)
[9] = target: T2, extracellular domain of human BLyS protein (hBLyS-ECD), His-tagged, Ala134-Leu285 (human, UniProt Q9Y275 134-285); test: SPR (Biacore), antibody captured by anti-human Fc, hBLyS-ECD as analyte
T2 construct: Expressed in HEK293 cells and purified on a Ni column; also called immunogen
Procedure: Affinity constants were determined using a Biacore X100 instrument (purchased from GE Healthcare). Detailed operations and methods referred to the instrument manuals and detailed methods provided by manufacturers, specifically: determining affinity constant using a CM5 chip (Sensor Chip CM5, purchased from GE Healthcare). […] Then 1 M ethanolamine was injected in chip to block the remaining activation sites. After the antibody to be tested (i.e., the human BLyS antibody prepared by Embodiment 2) was captured by chip, 7 different gradient of immunogen dilutions (i.e., hBLyS-ECD) prepared by Embodiment 1 were injected and the binding and dissociation of antigen with antibody was detected by a Biacore instrument. The dissociation constant and binding constant were then fitted by Biacore X100 Evaluation Software 2.0, while the affinity constant was the ratio of dissociation constant to binding constant.
The binding and dissociation between antibody and antigen was detected by Biacore.

biotinylated hBLyS-ECD [10] = target: T1, biotinylated hBLyS-ECD; test: BAFF R-coated ELISA, biotinylated hBLyS-ECD bound in presence of antibody 0 nM
biotinylated hBLyS-ECD [11] = target: T1, biotinylated hBLyS-ECD; test: BAFF R-coated ELISA, biotinylated hBLyS-ECD bound in presence of antibody 4 nM
biotinylated hBLyS-ECD [12] = target: T1, biotinylated hBLyS-ECD; test: BAFF R-coated ELISA, biotinylated hBLyS-ECD bound in presence of antibody 20 nM
biotinylated hBLyS-ECD [13] = target: T1, biotinylated hBLyS-ECD; test: BAFF R-coated ELISA, biotinylated hBLyS-ECD bound in presence of antibody 0.8 nM
biotinylated hBLyS-ECD [14] = target: T1, biotinylated hBLyS-ECD; test: BAFF R-coated ELISA, biotinylated hBLyS-ECD bound in presence of antibody 100 nM
biotinylated hBLyS-ECD [15] = target: T1, biotinylated hBLyS-ECD; test: BAFF R-coated ELISA, biotinylated hBLyS-ECD bound in presence of antibody 0.16 nM
biotinylated hBLyS-ECD [16] = target: T1, biotinylated hBLyS-ECD; test: BAFF R-coated ELISA, biotinylated hBLyS-ECD bound in presence of antibody 0.032 nM
biotinylated hBLyS-ECD [17] = target: T1, biotinylated hBLyS-ECD; test: BAFF R-coated ELISA, biotinylated hBLyS-ECD bound in presence of antibody 0.0064 nM
[18] = target: T2, extracellular domain of human BLyS …; test: cell-based or functional assay
[19] = target: T2, extracellular domain of human BLyS …; test: SPR (Biacore), antibody captured by anti-human Fc, hBLyS-ECD as analyte; remark: listed apart in the source

B1: h97A3C2H4-9 (antibody, V domains shown)
VH: EVQLVESGGGLVQPGGSLRLSCAASGFTFSTYTMSWVRQAPGKRLEWVAYISYGGGSTSYPDTVKGRFTISRDNAKNSLYLQMNSLRAEDTAVYYCTRHVTVVENSMDYWGQGTTVTVSS
VL: DILLTQSPDFQSVTPKEKVTITCRASQSIGTSIHWYQQKTDQSPKLLIKYVSESFSGTPSRFSGSGSGTDFTLTINSLEAEDAATYYCQQTHSWPWTFGGGTKVEIK
notes: Humanized antibody; VH3-7/JH6 CDR-grafted with A93T, G44R; also called humanized BLyS antibody h97A3C2H4 variant 9 (VH.1b / Vk.1d)
OD450 nm (biotinylated hBLyS-ECD [1]): 2.27 OD450 nm
OD450 nm (biotinylated hBLyS-ECD [2]): 2.24 OD450 nm
OD450 nm (biotinylated hBLyS-ECD [3]): 2.37 OD450 nm
OD450 nm (biotinylated hBLyS-ECD [4]): 1.02 OD450 nm
OD450 nm (biotinylated hBLyS-ECD [5]): 1.88 OD450 nm
OD450 nm (biotinylated hBLyS-ECD [6]): 0.372 OD450 nm
OD450 nm (biotinylated hBLyS-ECD [7]): 0.179 OD450 nm
OD450 nm (biotinylated hBLyS-ECD [8]): 0.198 OD450 nm
Kd [9]: 1.88 nM
koff [9]: 0.000216 s⁻¹
kon [9]: 115000 M⁻¹ s⁻¹
OD450 nm (biotinylated hBLyS-ECD [10]): 1.94 OD450 nm
OD450 nm (biotinylated hBLyS-ECD [11]): 1.13 OD450 nm
OD450 nm (biotinylated hBLyS-ECD [12]): 0.748 OD450 nm
OD450 nm (biotinylated hBLyS-ECD [13]): 1.56 OD450 nm
OD450 nm (biotinylated hBLyS-ECD [14]): 0.506 OD450 nm
OD450 nm (biotinylated hBLyS-ECD [15]): 1.81 OD450 nm
OD450 nm (biotinylated hBLyS-ECD [16]): 1.98 OD450 nm
OD450 nm (biotinylated hBLyS-ECD [17]): 1.96 OD450 nm

B3: h8E7D9C7F5-1 (antibody, V domains shown)
VH: EVQLVQSGAEVKKPGASVKVSCKASGYTFTSYGISWVRQAPGQGLEWMGEIYPRSGNTYYNEKFKGRVTMTTDTSTSTAYMELRSLRSDDTAVYYCARSGPITTLVATDYGMDYWGQGTTVTVSS
VL: DIVMTQSPDSLAVSLGERATINCRASKSVSTSSYSYMHWYQQKPGQPPKLLIKFASNLESGVPDRFSGSGSGTDFTLTISSLQAEDVAVYYCQHSREFPYTFGGGTKVEIK
notes: Humanized antibody; also called humanized BLyS antibody h8E7D9C7F5 variant 1 (VH.1 / Vk.1)
OD450 nm (biotinylated hBLyS-ECD [1]): 2.2 OD450 nm
OD450 nm (biotinylated hBLyS-ECD [2]): 2.18 OD450 nm
OD450 nm (biotinylated hBLyS-ECD [3]): 2.3 OD450 nm
OD450 nm (biotinylated hBLyS-ECD [4]): 1.35 OD450 nm
OD450 nm (biotinylated hBLyS-ECD [5]): 1.88 OD450 nm
OD450 nm (biotinylated hBLyS-ECD [6]): 0.499 OD450 nm
OD450 nm (biotinylated hBLyS-ECD [7]): 0.195 OD450 nm
OD450 nm (biotinylated hBLyS-ECD [8]): 0.129 OD450 nm
Kd [9]: 4.33 nM
koff [9]: 0.000942 s⁻¹
kon [9]: 218000 M⁻¹ s⁻¹
OD450 nm (biotinylated hBLyS-ECD [10]): 2.05 OD450 nm
OD450 nm (biotinylated hBLyS-ECD [11]): 1.11 OD450 nm
OD450 nm (biotinylated hBLyS-ECD [12]): 0.721 OD450 nm
OD450 nm (biotinylated hBLyS-ECD [13]): 1.54 OD450 nm
OD450 nm (biotinylated hBLyS-ECD [14]): 0.45 OD450 nm
OD450 nm (biotinylated hBLyS-ECD [15]): 1.78 OD450 nm
OD450 nm (biotinylated hBLyS-ECD [16]): 1.87 OD450 nm
OD450 nm (biotinylated hBLyS-ECD [17]): 1.98 OD450 nm

The remaining lines, values ahead:

Proportion of B lymphocytes in splenocytes (%), in vivo in mice [18]: 25.6%
B2: 2-1G11 (antibody, V domains shown)
VH: EVQLVESRGGVVQPGRSLRLSCAASGFTFSSYGMHWVRQAPGKGLEWVAVISYDGSNKYYADSVKGRFTISRDNSKNTLYLQMNSLRAEDAAVYYCARDRVDILTGYSIYGMDVWGQGTTVTVSS
VL: EIVMTQSPATLSLSPGERATLSCRASQSVSSYLAWYQQKPGQAPRLLIYDASKRATGIPARFSGSGSGTDFTLTISSLEPEDFAVYYCQQRSNWPLTFGGGTKVEIK

Proportion of B lymphocytes in splenocytes (%), in vivo in mice [18]: 30.5%
Kd [19]: 1.45 nM
koff [19]: 0.000277 s⁻¹
kon [19]: 190000 M⁻¹ s⁻¹
B4: c35E6F7C3 (antibody, V domains shown)
VH: EVQLQQSGAELVKPGASVKLSCTAAGFNIQDTYIHWVKQRPEQGLEWIGRIDPANANTVYDPKFQGKATITADTSSNTAYLQVSSLTSEDTAVYYCASPVITAGFAYWGQGTLVTVSA
VL: QIVLTQSPAIMSASPGEKVTMTCGASSSVNYVHWYQQKSGTSPKRWIYDTSKLASGVPARFSGSGSGTSYSLTISSMEAEDAATYYCQQWTRSPLTFGAGTKVELK
